# Key:
# [1] = target: Taxol-stabilized microtubules; experiment: MT spin-down (co-sedimentation) assay with PHDP5 (1 mM) added as competitor to MT and dynamin 1
# [2] = target: microtubules in mouse calyceal terminals (endogenous, assembled after h-tau loading), Q9ERD7
# Chain of microtubules in mouse calyceal terminals (endogenous, assembled after h-tau loading), Q9ERD7 (Q9ERD7 whole entry, looked up): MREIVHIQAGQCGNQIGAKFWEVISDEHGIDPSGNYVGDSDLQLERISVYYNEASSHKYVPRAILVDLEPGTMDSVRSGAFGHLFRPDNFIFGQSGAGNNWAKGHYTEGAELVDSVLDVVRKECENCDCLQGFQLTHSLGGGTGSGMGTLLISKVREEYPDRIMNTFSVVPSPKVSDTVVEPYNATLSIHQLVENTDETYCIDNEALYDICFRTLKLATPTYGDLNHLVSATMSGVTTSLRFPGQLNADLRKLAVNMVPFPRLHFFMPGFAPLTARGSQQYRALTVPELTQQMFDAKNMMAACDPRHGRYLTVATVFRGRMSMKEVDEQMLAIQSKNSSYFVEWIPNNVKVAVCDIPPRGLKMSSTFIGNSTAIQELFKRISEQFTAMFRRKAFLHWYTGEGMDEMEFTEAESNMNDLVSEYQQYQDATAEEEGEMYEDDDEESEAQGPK
Molecule,% of dynamin 1 in precipitates (ppts) relative to total amount [1] [%],dynamin immunofluorescence in permeabilised h-tau-loaded terminals against terminals without h-tau loading [2]
His-tagged human dynamin 1 (from UniProt Q05193 1-864),6.3,
dynamin 1 in mouse calyx of Held presynaptic terminals (endogenous) (protein) MGNRGMEDLIPLVNRLQDAFSAIGQNADLDLPQIAVVGGQSAGKSSVLENFVGRDFLPRGSGIVTRRPLVLQLVNSTTEYAEFLHCKGKKFTDFEEVRLEIEAETDRVTGTNKGISPVPINLRVYSPHVLNLTLVDLPGMTKVPVGDQPPDIEFQIRDMLMQFVTKENCLILAVSPANSDLANSDALKIAKEVDPQGQRTIGVITKLDLMDEGTDARDVLENKLLPLRRGYIGVVNRSQKDIDGKKDITAALAAERKFFLSHPSYRHLADRMGTPYLQKVLNQQLTNHIRDTLPGLRNKLQSQLLSIEKEVDEYKNFRPDDPARKTKALLQMVQQFAVDFEKRIEGSGDQIDTYELSGGARINRIFHERFPFELVKMEFDEKELRREISYAIKNIHGIRTGLFTPDLAFEATVKKQVQKLKEPSIKCVDMVVSELTSTIRKCSEKLQQYPRLREEMERIVTTHIREREGRTKEQVMLLIDIELAYMNTNHEDFIGFANAQQRSNQMNKKKTSGNQDEILVIRKGWLTINNIGIMKGGSKEYWFVLTAENLSWYKDDEEKEKKYMLSVDNLKLRDVEKGFMSSKHIFALFNTEQRNVYKDYRQLELACETQEEVDSWKASFLRAGVYPERVGDKEKASETEENGSDSFMHSMDPQLERQVETIRNLVDSYMAIVNKTVRDLMPKTIMHLMINNTKEFIFSELLANLYSCGDQNTLMEESAEQAQRRDEMLRMYHALKEALSIIGDINTTTVSTPMPPPVDDSWLQVQSVPAGRRSPTSSPTPQRRAPAVPPARPGSRGPAPGPPPAGSALGGAPPVPSRPGASPDPFGPPPQVPSRPNRAPPGVPRITISDP,,a 2.6-fold increase in dynamin signal

# Source: patent US20260083826A1, “NEW SYNTHETIC DRUGS FOR TREATING ALZHEIMER'S DISEASE” (OKINAWA INSTITUTE OF SCIENCE AND TECHNOLOGY SCHOOL …, priority 2022, published 2026)
